Our source for the OD 450 nm and koff values is patent US20240181006A1, “POLYPEPTIDES BINDING ADAMTS5, MMP13 AND AGGRECAN” (Merck Patent GmbH, priority 2017, published 2024).

Assay [1] addresses recombinant cynomolgus Aggrecan G1-IGD-G2 (cynomolgus). Put plainly: periplasmic extract ELISA on Cy G1-IGD-G2.
Assay [2] has as its target recombinant dog Aggrecan G1-IGD-G2 (dog) (UniProt Q28343). Put plainly: periplasmic extract ELISA on Dog G1-IGD-G2. Background: An ELISA detects its analyte on a solid surface through an enzyme-linked reagent.
For assay [3], the target named is recombinant rat Aggrecan G1-IGD-G2 (rat) (UniProt P07897). Put plainly: periplasmic extract ELISA on Rat G1-IGD-G2.
Assay [4] has as its target recombinant human Aggrecan G1-IGD-G2 (human) (UniProt P16112). Put plainly: periplasmic extract ELISA on Hu G1-IGD-G2.
The target in assay [5] is recombinant bovine Aggrecan G1-IGD-G2 (bovine) (UniProt P13608). Kind of assay: periplasmic extract ELISA on Bov G1-IGD-G2.
The target of a further assay is bovine ADAMTS5 (bovine) (UniProt Q9TT92). Kind of assay: SPR (Biacore T100), ADAMTS5 immobilized on CM5, 100 nM ISVD, Experiment 3. (In general: In SPR one partner is held on a chip, and binding of the other changes the refractive index at the surface.)

B1: anti-Aggrecan ISVD 114F08 (VHH)
VHH: EVQLVESGGGLVQAGGSLRLSCAASGSTFIINVVRWYRRTPGKQRELVATISSGGNANYVDSVRGRFSISRDGAKNAVDLQMNGLKPEDTAVYYCNVPTTHYGGVYYGPYWGQGTLVTVSS
With B1, the OD 450 nm was 2.32 OD 450 nm in assay [1]; 1.9 OD 450 nm in assay [2]; 2.05 OD 450 nm in assay [3]; 2.38 OD 450 nm in assay [4]; 1.18 OD 450 nm in assay [5].

B2: anti-ADAMTS5 ISVD 02F03 (VHH)
VHH: EVQLVESGGGVVQPGGSLRLSCAASGRTVSSYAMGWFRQAPGKEREFVAGISRSAERTYYVDSLKGRFTISRDNSKNTVYLQMNSLRPEDTALYYCAADLDPNRIFSREEYAYWGQGTLVTVSS
The term koff denotes the first-order rate constant of dissociation. A low value points to slow dissociation. In the assay with bovine ADAMTS5 (bovine), B2 displayed a koff of 4.3e-05 s⁻¹.
